Measured values: paper PMC8775132, “Complement-Mediated Selective Tumor Cell Lysis Enabled by Bi-Functional RNA Aptamers”

Legend:
complement iC3b [1] = molecular target: T1, complement iC3b (human, UniProt P01024;P01024;P01024 23-667;749-1303;1321-1663); test: filter binding; 20 mM HEPES pH 7.4, 150 mM NaCl, 10 mM MgCl2, BSA and yeast RNA 1 ug/20 uL each, 45 min at 37 C; details: protein: native; copies: 1;1;1; label: 32P
complement C3 = complement C3 (human, UniProt P01024;P01024 23-667;672-1663); test: as above; details: protein: native; copies: 1;1; label: 32P
complement C3, sequence (P01024 23-667, chain 1 of 2): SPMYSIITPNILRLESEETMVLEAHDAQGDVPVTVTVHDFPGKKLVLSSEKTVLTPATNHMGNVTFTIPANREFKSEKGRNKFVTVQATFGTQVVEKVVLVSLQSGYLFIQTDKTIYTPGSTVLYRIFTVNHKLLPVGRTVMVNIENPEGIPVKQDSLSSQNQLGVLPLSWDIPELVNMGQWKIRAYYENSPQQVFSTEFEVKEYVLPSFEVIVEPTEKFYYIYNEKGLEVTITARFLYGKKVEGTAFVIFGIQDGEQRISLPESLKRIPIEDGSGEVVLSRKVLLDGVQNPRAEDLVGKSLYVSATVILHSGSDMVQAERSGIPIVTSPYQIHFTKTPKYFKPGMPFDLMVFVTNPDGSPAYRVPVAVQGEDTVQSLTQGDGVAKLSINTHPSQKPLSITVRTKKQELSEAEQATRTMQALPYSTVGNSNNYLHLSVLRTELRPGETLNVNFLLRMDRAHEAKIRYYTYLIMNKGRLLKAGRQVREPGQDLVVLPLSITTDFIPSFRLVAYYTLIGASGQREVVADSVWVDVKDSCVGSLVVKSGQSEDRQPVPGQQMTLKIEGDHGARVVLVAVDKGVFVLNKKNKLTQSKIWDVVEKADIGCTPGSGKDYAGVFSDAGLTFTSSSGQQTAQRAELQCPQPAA
complement C3, sequence (P01024 672-1663, chain 2 of 2): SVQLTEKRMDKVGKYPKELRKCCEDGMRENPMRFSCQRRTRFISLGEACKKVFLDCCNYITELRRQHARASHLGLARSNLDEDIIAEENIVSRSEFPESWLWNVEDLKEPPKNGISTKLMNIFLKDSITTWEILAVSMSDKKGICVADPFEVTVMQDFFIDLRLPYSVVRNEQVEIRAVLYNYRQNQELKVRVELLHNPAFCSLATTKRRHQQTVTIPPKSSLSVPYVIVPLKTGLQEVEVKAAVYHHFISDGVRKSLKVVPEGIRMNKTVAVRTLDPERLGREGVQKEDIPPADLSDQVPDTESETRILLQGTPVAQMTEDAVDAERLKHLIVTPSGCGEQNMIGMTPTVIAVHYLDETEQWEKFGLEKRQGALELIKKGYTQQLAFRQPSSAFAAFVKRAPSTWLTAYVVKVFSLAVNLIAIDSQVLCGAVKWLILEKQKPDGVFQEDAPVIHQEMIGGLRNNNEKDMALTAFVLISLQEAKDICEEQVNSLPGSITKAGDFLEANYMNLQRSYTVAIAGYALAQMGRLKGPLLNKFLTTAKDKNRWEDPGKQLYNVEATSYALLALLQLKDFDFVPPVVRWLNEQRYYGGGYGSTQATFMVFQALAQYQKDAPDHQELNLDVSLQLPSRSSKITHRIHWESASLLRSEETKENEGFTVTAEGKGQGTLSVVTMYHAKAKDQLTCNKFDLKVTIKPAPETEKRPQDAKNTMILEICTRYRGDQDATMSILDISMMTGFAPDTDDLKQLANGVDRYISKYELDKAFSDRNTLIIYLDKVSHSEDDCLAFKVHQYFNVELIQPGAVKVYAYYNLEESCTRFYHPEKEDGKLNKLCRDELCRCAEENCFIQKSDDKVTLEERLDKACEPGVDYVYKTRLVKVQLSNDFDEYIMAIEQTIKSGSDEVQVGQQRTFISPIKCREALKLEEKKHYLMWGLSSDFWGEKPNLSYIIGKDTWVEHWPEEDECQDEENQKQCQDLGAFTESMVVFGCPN

complement C3b = complement C3b (human, UniProt P01024;P01024 23-667;749-1663); test: EMSA; 250 nM protein; 20 mM HEPES pH 7.4, 150 mM NaCl, 10 mM MgCl2, BSA and yeast RNA 1 ug/20 uL each, 45 min at 37 C; details: protein: native; copies: 1;1; label: 32P
complement C3b, sequence (P01024 23-667, chain 1 of 2): as the sequence (P01024 23-667, chain 1 of 2) above
complement C3b, sequence (P01024 749-1663, chain 2 of 2): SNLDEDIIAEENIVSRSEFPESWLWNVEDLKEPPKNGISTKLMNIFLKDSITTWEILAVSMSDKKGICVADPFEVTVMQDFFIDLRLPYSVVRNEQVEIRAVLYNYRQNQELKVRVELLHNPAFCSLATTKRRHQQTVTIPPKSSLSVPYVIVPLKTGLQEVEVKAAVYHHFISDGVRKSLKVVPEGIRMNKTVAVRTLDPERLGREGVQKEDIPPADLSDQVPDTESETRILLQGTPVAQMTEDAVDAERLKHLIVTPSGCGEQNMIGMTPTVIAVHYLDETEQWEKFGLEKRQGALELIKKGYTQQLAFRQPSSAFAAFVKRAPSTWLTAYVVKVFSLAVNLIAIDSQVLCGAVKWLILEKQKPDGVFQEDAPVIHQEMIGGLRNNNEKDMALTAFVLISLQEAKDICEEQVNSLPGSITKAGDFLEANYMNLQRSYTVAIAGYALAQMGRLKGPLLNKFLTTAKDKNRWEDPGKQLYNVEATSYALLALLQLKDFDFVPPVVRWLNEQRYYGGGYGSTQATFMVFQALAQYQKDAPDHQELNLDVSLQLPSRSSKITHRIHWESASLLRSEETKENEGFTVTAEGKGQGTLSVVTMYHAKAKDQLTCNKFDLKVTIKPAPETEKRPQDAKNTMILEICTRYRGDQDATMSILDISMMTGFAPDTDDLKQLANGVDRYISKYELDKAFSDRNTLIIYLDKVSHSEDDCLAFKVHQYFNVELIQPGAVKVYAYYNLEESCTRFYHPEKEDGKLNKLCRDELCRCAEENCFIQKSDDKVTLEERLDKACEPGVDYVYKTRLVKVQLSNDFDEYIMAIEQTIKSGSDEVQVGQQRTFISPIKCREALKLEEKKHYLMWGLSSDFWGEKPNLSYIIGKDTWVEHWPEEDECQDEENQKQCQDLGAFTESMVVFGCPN

complement iC3b [2] = molecular target: T1, complement iC3b; test: as above; details: protein: native; copies: 1;1;1; label: 32P

T1 sequence (P01024 23-667, chain 1 of 3): as the sequence (P01024 23-667, chain 1 of 2) above
T1 sequence (P01024 749-1303, chain 2 of 3): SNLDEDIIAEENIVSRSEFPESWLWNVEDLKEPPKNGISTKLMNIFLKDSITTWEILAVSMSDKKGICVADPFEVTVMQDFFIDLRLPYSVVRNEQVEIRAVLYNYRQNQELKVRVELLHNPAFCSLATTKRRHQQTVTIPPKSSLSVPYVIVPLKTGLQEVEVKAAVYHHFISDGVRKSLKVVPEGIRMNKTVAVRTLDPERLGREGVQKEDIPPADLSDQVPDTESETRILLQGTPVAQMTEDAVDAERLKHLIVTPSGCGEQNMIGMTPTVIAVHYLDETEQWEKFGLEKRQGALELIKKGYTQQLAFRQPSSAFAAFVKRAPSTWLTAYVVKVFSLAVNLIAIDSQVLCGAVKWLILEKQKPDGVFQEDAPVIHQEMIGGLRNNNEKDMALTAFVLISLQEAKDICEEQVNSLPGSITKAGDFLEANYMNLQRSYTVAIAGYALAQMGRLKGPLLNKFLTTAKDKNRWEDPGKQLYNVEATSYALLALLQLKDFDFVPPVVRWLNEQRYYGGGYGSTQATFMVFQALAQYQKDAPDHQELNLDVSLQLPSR
T1 sequence (P01024 1321-1663, chain 3 of 3): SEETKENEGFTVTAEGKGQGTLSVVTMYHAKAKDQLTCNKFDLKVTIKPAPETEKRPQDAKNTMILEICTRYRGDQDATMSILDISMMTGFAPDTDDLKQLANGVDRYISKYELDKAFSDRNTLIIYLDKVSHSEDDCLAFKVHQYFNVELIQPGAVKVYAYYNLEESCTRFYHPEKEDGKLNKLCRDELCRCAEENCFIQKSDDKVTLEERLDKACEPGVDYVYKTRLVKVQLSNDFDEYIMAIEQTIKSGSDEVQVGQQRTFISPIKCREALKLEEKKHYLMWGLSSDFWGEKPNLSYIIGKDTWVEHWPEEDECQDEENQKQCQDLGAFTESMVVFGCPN

B1: AptC3-III (structured_RNA)
RNA: GGGAGAAUUCAACUGCCAUCUACAGCCCCUCGGCCGCGUUCAGCGUCUAACCUUGGGCUGUAUAGAAAGGGUUUCCAGACUACAAGCUUCUGGACUCGGU
modifications: 2'-fluoro pyrimidines
Kd (complement iC3b [1]): 14.5 nM
Kd (complement C3): 17 nM

B2: AptC3-IV (structured_RNA)
RNA: GGGAGAAUUCAACUGCCAUCUAGUUGCAAAAACAUGAGGAUAGCAAAGUACCAGUGCAACUAACAAGGAAAAGAAGACGGACUACAAGCUUCUGGACUCGGU
modifications: 2'-fluoro pyrimidines
binding result (complement C3b): binds
binding result (complement iC3b [2]): binds

B3: AptC3-VI (structured_RNA)
RNA: GGGAGAAUUCAACUGCCAUCUAACCACGUAGUAAUACGGUAUGAUCCAGUUUUAAUUCUAACCAGACUGUUCAGAUGACUACAAGCUUCUGGACUCGGU
modifications: 2'-fluoro pyrimidines
binding result (complement C3b): binds
